Sequences and labels used below:
B1: CPEB3 Ribozyme (parent)
chain: GGGGGCCACAGCAGAAGCGUUCACGUCGCGGCCCCUGUCAGAUUCUGGUGAAUCUGCGAAUUCUGCUGU

In the data set the parent is B1. Put plainly: self-cleavage, relative activity (ratio to wild type); higher = more cleavage; co-transcriptional.
Take GGGGGCCACCGCAGAAGCGUUCACGUCGCGGCCCCUGUCAGAUUCUUGUGAAUCUGCGAAUUCUGCUGU: the self-cleavage stood at 1.01.

Regarding GGGGGCCACCGCAGAAGCGUUCACGUCGCGGCCCCUGUCAGAUUCUAGUGAAUCUGCGAAUUCUGCUGU, the self-cleavage was 1.04.

Turning to GGGGGCCACCGCAGAAGCGUUCACGUCGCUGCCCCUGUCAGAUUCUGGUGAAUCUGCGAAUUCUGCUGU, the self-cleavage stood at 0.753.

For GGGGGCCACCGCAGAAGCGUUCACGUCGCCGCCCCUGUCAGAUUCUGGUGAAUCUGCGAAUUCUGCUGU, the self-cleavage was 0.923.

Consider GGGGGCCACCGCAGAAGCGUUCACGUCGCAGCCCCUGUCAGAUUCUGGUGAAUCUGCGAAUUCUGCUGU, for which the self-cleavage came out at 0.994.

Take GGGGGCCACCGCAGAAGCGUUCACGUCGCGGUCCCUGUCAGAUUCUGGUGAAUCUGCGAAUUCUGCUGU: the self-cleavage is 1.04.

In the case of GGGGGCCACCGCAGAAGCGUUCACGUCGCGGACCCUGUCAGAUUCUGGUGAAUCUGCGAAUUCUGCUGU, the self-cleavage came to 0.908.

For the variant GGGGGCCACCGCAGAAGCGUUCACGUCGCGGCCCCUGUCAGAUUCUGAUGAAUCUGCGAAUUCUGCUGU, the self-cleavage stood at 1.02.

Turning to GGGGGCCACCGCAGAAGCGUUUACGUCGCGGCCCCUGUCAGAUUCUGGUGAAUCUGCGAAUUCUGCUGU, the self-cleavage worked out at 0.351.

Turning to GGGGGCCACCGCAGAAGCGUUGACGUCGCGGCCCCUGUCAGAUUCUGGUGAAUCUGCGAAUUCUGCUGU, the self-cleavage came out at 0.141.

GGGGGCCACCGCAGAAGCGUUCACGUCGCGGCCCCUGUCAGAUUCUGGUGAAUCUGCGAGUUCUGCUGU: the self-cleavage was 0.853.

Take GGGGGCCACCGCAGAAGCGUUCACGUCGCGGCCCCUGUCAGAUUCUGGUGAAUCUGCGAUUUCUGCUGU: the self-cleavage worked out at 0.484.

GGGGGCCACCGCAGAAGCGUUCACGUCGCGGCCCCUGUCAGAUUCUGGUGAAUCUGCGACUUCUGCUGU: the self-cleavage worked out at 0.28.

GGGGGCCACCGCAGAAGCGUUCACGUCUCGGCCCCUGUCAGAUUCUGGUGAAUCUGCGAAUUCUGCUGU: the self-cleavage was determined as 0.12.

Turning to GGGGGCCACCGCAGAAGCGUUCACGUCACGGCCCCUGUCAGAUUCUGGUGAAUCUGCGAAUUCUGCUGU, the self-cleavage was determined as 0.125.

As for GGGGGCCACCGCAGAAGCAUUCACGUCGCGGCCCCUGUCAGAUUCUGGUGAAUCUGCGAAUUCUGCUGU, the self-cleavage was 0.162.

Take GGGGGCCACCGCAGAAGGGUUCACGUCGCGGCCCCUGUCAGAUUCUGGUGAAUCUGCGAAUUCUGCUGU: the self-cleavage was found to be 0.196.

With GGGGGCCACCGCAGAAGCGUUCACGUCGCGGCCCCUGUCAGAUUCUGGUAAAUCUGCGAAUUCUGCUGU, the self-cleavage stood at 0.971.

Regarding GGGGGCCACCGCAGAAGCGUUCACGUCGCGGCCCCUGUCAGAUUCUGGUGAAUCUGCGAAUUCUACUGU, the self-cleavage was 0.798.

Consider GGGGGCCACCGCAGAAGCGUUCACGUCGCGGCCCCUGUCAGAUUCUGGUGAAUCUGCGAAUUCUUCUGU, for which the self-cleavage stood at 0.655.

Turning to GGGGGCCACCGCAGAAGCGUUCACGUCGCGGCCCCUGUCAGAUUCUGGUGAAUCUGCGAAUUCUCCUGU, the self-cleavage was 0.637.

As for GGGGGCCACCGCAGAAGCGUUCACGUCGCGGCCCCUGUGAGAUUCUGGUGAAUCUGCGAAUUCUGCUGU, the self-cleavage came to 0.987.

As for GGGGGCCACCGCAGAAGCGUUCACGUCGCGGCCCCUGUAAGAUUCUGGUGAAUCUGCGAAUUCUGCUGU, the self-cleavage was 0.861.

For the variant GGGGGCCACCGCAGAAGCGUUCAUGUCGCGGCCCCUGUCAGAUUCUGGUGAAUCUGCGAAUUCUGCUGU, the self-cleavage was found to be 0.891.

With GGGGGCCACCGCAGAAGCGUUCAAGUCGCGGCCCCUGUCAGAUUCUGGUGAAUCUGCGAAUUCUGCUGU, the self-cleavage worked out at 0.738.

As for GGGGGCCACCGCAGAAGCGUUCACGUAGCGGCCCCUGUCAGAUUCUGGUGAAUCUGCGAAUUCUGCUGU, the self-cleavage was 0.666.

For GGGGGCCACCGCAGAAGCGUUCACGUUGCGGCCCCUGUCAGAUUCUGGUGAAUCUGCGAAUUCUGCUGU, the self-cleavage came out at 0.508.

Turning to GGGGGCCACCGCAGAAGCGUUCACGUCGCGGCCACUGUCAGAUUCUGGUGAAUCUGCGAAUUCUGCUGU, the self-cleavage was 0.981.

As for GGGGGCCACCGCAGAAGCGUUCACGUCGCGGCCUCUGUCAGAUUCUGGUGAAUCUGCGAAUUCUGCUGU, the self-cleavage was 0.986.

For the variant GGGGGCCACCGCAGAAGCGUUCACGUCGCGGCCCCUGUCAGAUUCUGGUGAAUCUGCGUAUUCUGCUGU, the self-cleavage was found to be 0.82.

For GGGGGCCACCGCAGAAACGUUCACGUCGCGGCCCCUGUCAGAUUCUGGUGAAUCUGCGAAUUCUGCUGU, the self-cleavage was 0.48.

For GGGGGCCACCGCAGAACCGUUCACGUCGCGGCCCCUGUCAGAUUCUGGUGAAUCUGCGAAUUCUGCUGU, the self-cleavage amounted to 0.0999.

As for GGGGGCCACCGCAGAAGCGUUCACGUCGCGGCCCCUUUCAGAUUCUGGUGAAUCUGCGAAUUCUGCUGU, the self-cleavage was found to be 0.244.

As to GGGGGCCACCGCAGAAGCGUUCACGUCGCGGCCCCUCUCAGAUUCUGGUGAAUCUGCGAAUUCUGCUGU, the self-cleavage came to 0.23.

Consider GGGGGCCACCACAGAAGCGUUCACGUCGCGGCCCCUGUCAGAUUCUGGUGAAUCUGCGAAUUCUGCUGU, for which the self-cleavage turned out to be 0.887.

GGGGGCCACCUCAGAAGCGUUCACGUCGCGGCCCCUGUCAGAUUCUGGUGAAUCUGCGAAUUCUGCUGU: the self-cleavage amounted to 0.913.

For GGGGGCCACCGCAGAAGCGUUCACGUCGCGGCCCCUGUCAGUUUCUGGUGAAUCUGCGAAUUCUGCUGU, the self-cleavage came to 0.921.

Take GGGGGCCACCGCAGAGGCGUUCACGUCGCGGCCCCUGUCAGAUUCUGGUGAAUCUGCGAAUUCUGCUGU: the self-cleavage is 0.967.

Take GGGGGCCACCGCAGACGCGUUCACGUCGCGGCCCCUGUCAGAUUCUGGUGAAUCUGCGAAUUCUGCUGU: the self-cleavage stood at 0.252.

As to GGGGGCCACCGCAGAUGCGUUCACGUCGCGGCCCCUGUCAGAUUCUGGUGAAUCUGCGAAUUCUGCUGU, the self-cleavage stood at 0.818.

Regarding GGGGGCCACCGCAUAAGCGUUCACGUCGCGGCCCCUGUCAGAUUCUGGUGAAUCUGCGAAUUCUGCUGU, the self-cleavage was 0.411.

Turning to GGGGGCCACCGCAAAAGCGUUCACGUCGCGGCCCCUGUCAGAUUCUGGUGAAUCUGCGAAUUCUGCUGU, the self-cleavage was found to be 0.363.

Turning to GGGGGCCACCGCAGAAGCGUUCACGUCGCGGCCCCUGUCAGAUUCUGGUGAAUCUGCGAAUUAUGCUGU, the self-cleavage stood at 0.676.

On to GGGGGCCACCGCAGAAGCGUUCACGUCGCGGCCCCUGUCAGAUUCUGGUGAAUCUGCGAAUUUUGCUGU, for which the self-cleavage stood at 1.02.

Take GGGGGCCACCGCAGAAGCGUUCACGUCGGGGCCCCUGUCAGAUUCUGGUGAAUCUGCGAAUUCUGCUGU: the self-cleavage stood at 0.165.

For GGGGGCCACCGCAGAAGCGUUCACGUCGAGGCCCCUGUCAGAUUCUGGUGAAUCUGCGAAUUCUGCUGU, the self-cleavage turned out to be 0.596.

On to GGGGGCCACCGAAGAAGCGUUCACGUCGCGGCCCCUGUCAGAUUCUGGUGAAUCUGCGAAUUCUGCUGU, for which the self-cleavage came out at 0.439.

As for GGGGGCCACCGUAGAAGCGUUCACGUCGCGGCCCCUGUCAGAUUCUGGUGAAUCUGCGAAUUCUGCUGU, the self-cleavage is 0.882.

In the case of GGGGGCCACCGGAGAAGCGUUCACGUCGCGGCCCCUGUCAGAUUCUGGUGAAUCUGCGAAUUCUGCUGU, the self-cleavage turned out to be 0.659.

As for GGGGGCCACCGCAGAAGCGUUCACGUCGCGGCCCCUGUCAGAUUCUGGUGAGUCUGCGAAUUCUGCUGU, the self-cleavage was found to be 0.988.

In the case of GGGGGCCACCGCAGAAGCGUUCACGUCGCGUCCCCUGUCAGAUUCUGGUGAAUCUGCGAAUUCUGCUGU, the self-cleavage stood at 0.913.

For GGGGGCCACCGCAGAAGCGUUCACGUCGCGACCCCUGUCAGAUUCUGGUGAAUCUGCGAAUUCUGCUGU, the self-cleavage was found to be 0.968.

As for GGGGGCCACCGCAGAAGCGUUCACGUCGCGGCCCCUGUCCGAUUCUGGUGAAUCUGCGAAUUCUGCUGU, the self-cleavage was found to be 0.378.

For the variant GGGGGCCACCGCAGAAGCGUUCACGUCGCGGCCCCUGUCUGAUUCUGGUGAAUCUGCGAAUUCUGCUGU, the self-cleavage is 0.867.

Consider GGGGGCCACCGCAGAAGCGUUCACGUCGCGGCCCCUGUCAGAUUCUGGUGAAUCUGCGAAUUCUGCUAU, for which the self-cleavage came to 1.03.

In the case of GGGGGCCACCGCAGAAGCGUUCACGUCGCGGCACCUGUCAGAUUCUGGUGAAUCUGCGAAUUCUGCUGU, the self-cleavage turned out to be 0.965.

As for GGGGGCCACCGCAGAAGCGUUCACGUCGCGGCGCCUGUCAGAUUCUGGUGAAUCUGCGAAUUCUGCUGU, the self-cleavage stood at 0.988.

For GGGGGCCACCGCAGAAGCGUUCACGUCGCGGCCCCUGUCAGAUUCUGGUGAAUCUCCGAAUUCUGCUGU, the self-cleavage amounted to 0.772.

Regarding GGGGGCCACCGCAGAAGCGUUCACGUCGCGGCCCCUGUCAGAUUCUGGUGAAUCUGCUAAUUCUGCUGU, the self-cleavage was 0.999.

As for GGGGGCCACCGCAGAAGCGUUCACGUCGCGGCCCCUGUCAGAUUCUGGUGAAUCUGCCAAUUCUGCUGU, the self-cleavage turned out to be 0.965.

Regarding GGGGGCCACCGCAGAAGCGUUCACGUCGCGGCCCCUGUCAGAUUCUGGUGUAUCUGCGAAUUCUGCUGU, the self-cleavage was 1.02.

With GGGGGCCACCGCAGAAGCGUUCACGUCGCGGCCCCUGUCAGAUUCUGGUGGAUCUGCGAAUUCUGCUGU, the self-cleavage came to 1.06.

Turning to GGGGGCCACCGCAGAAGCGUUCACGUCGCGGCCCCUGUCAGAUUCUGGUGCAUCUGCGAAUUCUGCUGU, the self-cleavage was found to be 0.978.

For GGGGGCCACCGCAGAAGCGUUCACGUCGCGGCCCCUGUCAGAUUCUGGUGAAUCUGUGAAUUCUGCUGU, the self-cleavage amounted to 0.275.

On to GGGGGCCACCGCAGAAGCGUUCACGUCGCGGCCCCUGUCAGAUUCUGGUGAAUCUGAGAAUUCUGCUGU, for which the self-cleavage came out at 0.351.

For GGGGGCCACCGCAGAAGCGUUCACGUCGCGGCCCCUGUCAGAUUCUGGUGAAUCUGGGAAUUCUGCUGU, the self-cleavage came to 0.292.

Take GGGGGCCACCGCAGGAGCGUUCACGUCGCGGCCCCUGUCAGAUUCUGGUGAAUCUGCGAAUUCUGCUGU: the self-cleavage came out at 0.947.

GGGGGCCACCGCAGCAGCGUUCACGUCGCGGCCCCUGUCAGAUUCUGGUGAAUCUGCGAAUUCUGCUGU: the self-cleavage came to 0.771.

GGGGGCCACCGCAGUAGCGUUCACGUCGCGGCCCCUGUCAGAUUCUGGUGAAUCUGCGAAUUCUGCUGU: the self-cleavage stood at 0.77.

Regarding GGGGGCCACCGCAGAAGCGUUCACGUCGCGGCCCCUGUCAGAUUUUGGUGAAUCUGCGAAUUCUGCUGU, the self-cleavage is 1.

As to GGGGGCCACCGCAGAAGCGUUCACGUCGCGGCCCCUGUCAGAUUAUGGUGAAUCUGCGAAUUCUGCUGU, the self-cleavage turned out to be 0.97.

Turning to GGGGGCCACCGCAGAAGCGUUCACAUCGCGGCCCCUGUCAGAUUCUGGUGAAUCUGCGAAUUCUGCUGU, the self-cleavage is 0.212.

With GGGGGCCACCGCAGAAGCGUUCACCUCGCGGCCCCUGUCAGAUUCUGGUGAAUCUGCGAAUUCUGCUGU, the self-cleavage was 0.103.

As for GGGGGCCACCGCAGAAGCGUUCACGUCGCGGCCCGUGUCAGAUUCUGGUGAAUCUGCGAAUUCUGCUGU, the self-cleavage was 0.631.

For GGGGGCCACCGCAGAAGCGUUCACGUCGCGGCCCAUGUCAGAUUCUGGUGAAUCUGCGAAUUCUGCUGU, the self-cleavage was 0.325.

As to GGGGGCCACCGCAGAAGCGUUCACGUCGCGGCCCUUGUCAGAUUCUGGUGAAUCUGCGAAUUCUGCUGU, the self-cleavage came out at 0.992.

Take GGGGGCCACCGCAGAAGCGUUCUCGUCGCGGCCCCUGUCAGAUUCUGGUGAAUCUGCGAAUUCUGCUGU: the self-cleavage turned out to be 0.983.

As for GGGGGCCACCGCAGAAGCGUUCCCGUCGCGGCCCCUGUCAGAUUCUGGUGAAUCUGCGAAUUCUGCUGU, the self-cleavage was determined as 0.938.

The record behind these values is the RNAGym collection of RNA variant scans (doi:10.7554/elife.80360).
